Residue numbers refer to the chain shown, from its start. Names and notes keep the numbering of the source.
T1: human Myl12b-His (human, UniProt O14950 1-172)
T1 construct: Made in E. coli; GST tag cleaved with PreScission Protease; DTT-treated monomer
T1 sequence: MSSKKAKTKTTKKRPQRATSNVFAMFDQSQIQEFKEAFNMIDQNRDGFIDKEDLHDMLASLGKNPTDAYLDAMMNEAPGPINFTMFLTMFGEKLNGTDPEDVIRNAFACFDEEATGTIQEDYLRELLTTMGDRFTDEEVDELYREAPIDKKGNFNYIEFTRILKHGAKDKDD

T2: human Myl9-His (human, UniProt P24844 2-172, limits assumed)
T2 construct: Made in E. coli; the GST tag was cleaved with PreScission Protease
T2 sequence: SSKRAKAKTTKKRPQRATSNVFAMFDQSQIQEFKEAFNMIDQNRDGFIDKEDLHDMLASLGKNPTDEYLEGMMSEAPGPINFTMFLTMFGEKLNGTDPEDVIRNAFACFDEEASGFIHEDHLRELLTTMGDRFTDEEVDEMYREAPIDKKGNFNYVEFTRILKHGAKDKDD

T3: human Myl12a-His (human, UniProt P19105 1-171)
T3 construct: Made in E. coli; GST tag cleaved with PreScission Protease; DTT-treated monomer
T3 sequence: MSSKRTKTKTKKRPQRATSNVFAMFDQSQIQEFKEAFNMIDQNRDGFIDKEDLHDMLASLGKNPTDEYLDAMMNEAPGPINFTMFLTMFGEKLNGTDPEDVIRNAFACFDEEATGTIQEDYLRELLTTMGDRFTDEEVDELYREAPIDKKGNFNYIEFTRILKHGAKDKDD

B1: Humanized antibody No. 131 (antibody, human IgG2, kappa)
heavy: QVQLVQSGSELKKPGASVKVSCKASGYTFTDYEMHWVRQAPGQGLEWMGAIDPETGGTAYNQKFKGRFVFSLDTSVSTAYLQISSLKAEDTAVYYCADYDYDGFAYWGQGTLVTVSSASTKGPSVFPLAPCSRSTSESTAALGCLVKDYFPEPVTVSWNSGALTSGVHTFPAVLQSSGLYSLSSVVTVPSSNFGTQTYTCNVDHKPSNTKVDKTVERKCCVECPPCPAPPAAAPSVFLFPPKPKDTLMISRTPEVTCVVVDVSHEDPEVQFNWYVDGVEVHNAKTKPREEQFNSTFRVVSVLTVVHQDWLNGKEYKCKVSNKGLPAPIEKTISKTKGQPREPQVYTLPPSREEMTKNQVSLTCLVKGFYPSDIAVEWESNGQPENNYKTTPPMLDSDGSFFLYSKLTVDKSRWQQGNVFSCSVMHEALHNHYTQKSLSLSPG
light: DIVMTQSPLSLPVTPGEPASISCRSSQSLVHSNGNTYLHWYLQKPGQSPQLLISKVSNRFSGVPDRFSGSGSGTDFTLKISRVEAEDVGVYFCSQNTHVPPLTFGGGTKVEIKRTVAAPSVFIFPPSDEQLKSGTASVVCLLNNFYPREAKVQWKVDNALQSGNSQESVTEQDSKDSTYSLSSTLTLSKADYEKHKVYACEVTHQGLSSPVTKSFNRGEC
notes: human IgG2 (V234A, G237A, C-terminal Lys deleted) / kappa; Expi293F, Protein A purified; also called HK3-2/L1-4
B2: Humanized antibody No. 132 (antibody, human IgG2, kappa)
heavy: B1 heavy
light: B1 light with I2V
notes: human IgG2 (V234A, G237A, C-terminal Lys deleted) / kappa; Expi293F, Protein A purified; also called HK3-2/L1-A
B3: Humanized antibody No. 133 (antibody, human IgG2, kappa)
heavy: B1 heavy
light: B1 light with P12S, V13I, P18Q
notes: human IgG2 (V234A, G237A, C-terminal Lys deleted) / kappa; Expi293F, Protein A purified; also called HK3-2/L1-5
B4: Humanized antibody No. 134 (antibody, human IgG2, kappa, V domains shown)
VH: QVQLVQSGSELKKPGASVKVSCKASGYTFTDYEMHWVRQAPGQGLEWMGAIDPETGGTAYNQKFKGRFVFSLDTSVSTAYLQISSLKAEDTAVYYCADYDYDGFAYWGQGTLVTVSS
VL: DIVMTQTPLSSPVTLGQPASISCRSSQSLVHSNGNTYLHWYQQRPGQPPRLLISKVSNRFSGVPDRFSGSGAGTDFTLKISRVEAEDVGVYFCSQNTHVPPLTFGGGTKVEIKR
notes: human IgG2 (V234A, G237A, C-terminal Lys deleted) / kappa; Expi293F, Protein A purified; also called HK3-2/L4-2
B5: chimeric antibody prepared from Antibody A (antibody, human IgG2, kappa, V domains shown)
VH: QVQLQQSGAEVVRPGASVTLSCKASGYTFTDYEMHWVKQTPVHGLEWIGAIDPETGGTAYNQKFKGKAILTADKSSNTAYMELRSLTSEDSAVYYCTDYDYDGFAYWGQGTLVTVSA
VL: DVVMTQTPLSLPVSLGDQASISCRSSQSLVHSNGNTYLHWYLQKPGRSPKLLISKVSNRFSGVPDRFSGSGSGTDFTLKITRVEAEDLGVYFCSQNTHVPPLTFGAGTKLELKR
notes: VH and VL amino acid numbers 13 and 15 are deduced as for Antibody A
B6: Humanized antibody No. 117 (antibody, human IgG2, kappa, V domains shown)
VH: QVQLVQSGAEVKKPGASVKVSCKASGYTFTDYEMHWVRQAPGQGLEWMGAIDPETGGTAYNQKFKGRATMTADTSTSTAYMELSSLRSEDTAVYYCADYDYDGFAYWGQGTLVTVSS
VL: DIVMTQSPLSLSITPGEQASISCRSSQSLVHSNGNTYLHWYLQKPGQSPQLLISKVSNRFSGVPDRFSGSGSGTDFTLKISRVEAEDVGVYFCSQNTHVPPLTFGGGTKVEIKR
notes: human IgG2 (V234A, G237A, C-terminal Lys deleted) / kappa; Expi293F, Protein A purified; also called HK2-6/L1-5
B7: Humanized antibody No. 121 (antibody, human IgG2, kappa, V domains shown)
VH: B6 VH with A16S, N61A, K65Q, A68V, M70I, T74K, S84R
VL: B4 VL
notes: human IgG2 (V234A, G237A, C-terminal Lys deleted) / kappa; Expi293F, Protein A purified; also called HA1-6/L4-2
B8: Humanized antibody No. 122 (antibody, human IgG2, kappa, V domains shown)
VH: B6 VH with A16S, N61A, K65Q, M70I, T74K, S84R
VL: B4 VL
notes: human IgG2 (V234A, G237A, C-terminal Lys deleted) / kappa; Expi293F, Protein A purified; also called HA1-4/L4-2
B9: Humanized antibody No. 129 (antibody, human IgG2, kappa, V domains shown)
VH: B6 VH with A68V, T74K
VL: B4 VL
notes: human IgG2 (V234A, G237A, C-terminal Lys deleted) / kappa; Expi293F, Protein A purified; also called HK2-9/L4-2
B10: Humanized antibody No. 126 (antibody, human IgG2, kappa, V domains shown)
VH: B6 VH with A16S, T30S, M48I, M70I, T74K, S84R, A97T
VL: B4 VL
notes: human IgG2 (V234A, G237A, C-terminal Lys deleted) / kappa; Expi293F, Protein A purified; also called HK1-A/L4-2
B11: Humanized antibody No. 123 (antibody, human IgG2, kappa, V domains shown)
VH: B6 VH with A16S, Y27G, T30S, A68V, M70I, T74K
VL: B4 VL
notes: human IgG2 (V234A, G237A, C-terminal Lys deleted) / kappa; Expi293F, Protein A purified; also called HK1-5/L4-2
B12: Humanized antibody No. 128 (antibody, human IgG2, kappa, V domains shown)
VH: B6 VH
VL: B4 VL
notes: human IgG2 (V234A, G237A, C-terminal Lys deleted) / kappa; Expi293F, Protein A purified; also called HK2-6/L4-2
B13: Humanized antibody No. 125 (antibody, human IgG2, kappa, V domains shown)
VH: B6 VH with A16S, Y27G, T30S, M70I, T74K, S84R
VL: B4 VL
notes: human IgG2 (V234A, G237A, C-terminal Lys deleted) / kappa; Expi293F, Protein A purified; also called HK1-4/L4-2
B14: Humanized antibody No. 127 (antibody, human IgG2, kappa, V domains shown)
VH: B6 VH with A68V
VL: B4 VL
notes: human IgG2 (V234A, G237A, C-terminal Lys deleted) / kappa; Expi293F, Protein A purified; also called HK2-5/L4-2
B15: Humanized antibody No. 118 (antibody, human IgG2, kappa, V domains shown)
VH: B6 VH with A68V, T74K
VL: B6 VL
notes: human IgG2 (V234A, G237A, C-terminal Lys deleted) / kappa; Expi293F, Protein A purified; also called HK2-9/L1-5
B16: Humanized antibody No. 124 (antibody, human IgG2, kappa, V domains shown)
VH: B6 VH with A16S, Y27G, T30S, A68V, M70I, T74K, S84R
VL: B4 VL
notes: human IgG2 (V234A, G237A, C-terminal Lys deleted) / kappa; Expi293F, Protein A purified; also called HK1-6/L4-2

molecular target: T1, human Myl12b-His; experiment: ELISA, human Myl12b-His coated, anti-human IgG-HRP
Description: (§1) The binding ability of chimeric and humanized antibodies prepared from Antibody A against human Myl12a and Myl12b was evaluated following the steps below by ELISA. Human Myl3-His, human Myl9-His, human Myl12a-His and human Myl12b-His were coated onto the wells of a 96-well plate (Nunc), respectively. After an overnight incubation at 4° C., the wells were blocked at room temperature for one hour with 1× Block Ace (DS Pharma Biomedical Co., Ltd.). After washing three times with 0.02% Tween 20/PBS, the chimeric and humanized antibodies were diluted at the concentration of 0.01, 0.1 and 1 μg/mL, respectively and added to the wells. After incubation at room temperature for one hour and washing three times, horseradish peroxidase-labeled anti-human IgG antibody (Jackson ImmunoResearch Laboratories) was added, and this was incubated at room temperature for one hour. After washing 5 times, TMBZ (3,3′,5,5′-tetramethylbenzidine) solution was added to the wells, and this was incubated for 5-20 minutes at room temperature. An equal amount of reaction quenching solution (2N H₂SO₄) was added to the wells, and absorbance at 450 nm was read with a microplate reader (Thermo Scientific).

Row | binding result | Binder
1 | binds | B1
2 | binds | B2
3 | binds | B3
4 | binds | B4
5 | binds | B5
6 | binds | B6
7 | binds | B7
8 | binds | B8
9 | binds | B9
10 | binds | B10
11 | binds | B11
12 | binds | B12
13 | binds | B13
14 | binds | B14
15 | binds | B15
16 | binds | B16

molecular target: T2, human Myl9-His; experiment: ELISA, human Myl9-His coated, anti-human IgG-HRP
Description: (§2) The binding ability against human Myl9 was evaluated following the steps below by ELISA. Human Myl3-His and human Myl9-His were coated onto the wells of a 96-well plate (Nunc). After an overnight incubation at 4° C., the wells were blocked at room temperature for one hour with 1× Block Ace (DS Pharma Biomedical Co., Ltd.). After washing three times with 0.02% Tween 20/PBS, seven serial dilutions by six folds of the chimeric and humanized antibodies were made from a concentration of 10 μg/mL and added to the wells. After incubation at room temperature for one hour and washing three times, horseradish peroxidase-labeled anti-human IgG antibody (Jackson ImmunoResearch Laboratories) was added, and this was incubated at room temperature for one hour. After washing 5 times, TMBZ (3,3′,5,5′-tetramethylbenzidine) solution was added to the wells, and this was incubated for 5-20 minutes at room temperature. An equal amount of reaction quenching solution (2N H₂SO₄) was added to the wells, and absorbance at 450 nm was read with a microplate reader (PerkinElmer).

Row | binding result | Binder
17 | binds | B1
18 | binds | B2
19 | binds | B3
20 | binds | B4
21 | binds | B5
22 | binds | B6
23 | binds | B7
24 | binds | B8
25 | binds | B9
26 | binds | B10
27 | binds | B11
28 | binds | B12
29 | binds | B13
30 | binds | B14
31 | binds | B15
32 | binds | B16

molecular target: T3, human Myl12a-His; experiment: ELISA, human Myl12a-His coated, anti-human IgG-HRP
Description: as §1

Row | binding result | Binder
33 | binds | B1
34 | binds | B2
35 | binds | B3
36 | binds | B4
37 | binds | B5
38 | binds | B6
39 | binds | B7
40 | binds | B8
41 | binds | B9
42 | binds | B10
43 | binds | B11
44 | binds | B12
45 | binds | B13
46 | binds | B14
47 | binds | B15
48 | binds | B16

molecular target: T4, human Myl3-His (human, UniProt P08590 2-195, limits assumed); experiment: ELISA, human Myl3-His coated, anti-human IgG-HRP
T4 construct: Made in E. coli; the GST tag was cleaved with PreScission Protease
Description: as §2

T4 sequence (P08590 2-195 limits assumed): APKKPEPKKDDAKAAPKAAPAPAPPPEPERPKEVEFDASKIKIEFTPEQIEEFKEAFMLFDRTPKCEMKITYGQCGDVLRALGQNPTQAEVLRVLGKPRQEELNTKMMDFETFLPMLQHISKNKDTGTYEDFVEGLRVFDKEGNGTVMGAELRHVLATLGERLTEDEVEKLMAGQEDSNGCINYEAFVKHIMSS

Row | binding result | Binder
49 | no binding (tested: 10 µg/mL) | B1
50 | no binding (tested: 10 µg/mL) | B2
51 | no binding (tested: 10 µg/mL) | B3
52 | no binding (tested: 10 µg/mL) | B4
53 | no binding (tested: 10 µg/mL) | B6
54 | no binding (tested: 10 µg/mL) | B7
55 | no binding (tested: 10 µg/mL) | B8
56 | no binding (tested: 10 µg/mL) | B9
57 | no binding (tested: 10 µg/mL) | B10
58 | no binding (tested: 10 µg/mL) | B11
59 | no binding (tested: 10 µg/mL) | B12
60 | no binding (tested: 10 µg/mL) | B13
61 | no binding (tested: 10 µg/mL) | B14
62 | no binding (tested: 10 µg/mL) | B15
63 | no binding (tested: 10 µg/mL) | B16

molecular target: T4, human Myl3-His; experiment: ELISA at 0.01, 0.1 and 1 µg/mL, human Myl3-His coated, anti-human IgG-HRP
Description: as §1

Row | binding result | Binder
64 | no binding (tested: 1 µg/mL) | B5
